According to doi:10.1101/2021.08.09.455663:

Columns and labels:
[1] = target: phosphorylated STAT1 dimer (pSTAT1d) (UniProt P42224); experiment: BLI
[2] = target: GST-tagged TgIST-R2 (Toxoplasma gondii); experiment: BLI

Substance	Kd [1] [nM]	Kd [2] [nM]
TgIST-R2 peptide after GST removal (domain or fragment)	330	
phosphorylated STAT1 dimer (pSTAT1d) (from UniProt P42224 132-713) (domain or fragment)		22
